The text below walks through data of article PMC4871238.

For the test, the target named is native Dictyostelium discoideum pre-60S ribosomal subunit (Dictyostelium discoideum) (UniProt P34113). The test is described as follows: cryo-EM structure.
Sequence of native Dictyostelium discoideum pre-60S ribosomal subunit (Dictyostelium discoideum) (P34113 whole entry, looked up, tested part not stated): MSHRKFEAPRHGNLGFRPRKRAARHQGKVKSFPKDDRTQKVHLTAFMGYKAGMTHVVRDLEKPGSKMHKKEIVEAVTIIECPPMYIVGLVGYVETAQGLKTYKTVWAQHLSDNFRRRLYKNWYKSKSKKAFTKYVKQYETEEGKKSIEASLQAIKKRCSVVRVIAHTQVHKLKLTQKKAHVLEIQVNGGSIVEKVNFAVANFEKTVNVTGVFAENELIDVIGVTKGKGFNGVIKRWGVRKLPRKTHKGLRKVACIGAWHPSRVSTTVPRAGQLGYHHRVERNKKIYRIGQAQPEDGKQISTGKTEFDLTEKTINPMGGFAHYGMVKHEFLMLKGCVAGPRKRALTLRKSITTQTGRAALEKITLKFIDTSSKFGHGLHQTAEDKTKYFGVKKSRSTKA

Sequence of Dictyostelium discoideum eIF6 (eukaryotic initiation factor 6), endogenous (Q551M2 whole entry): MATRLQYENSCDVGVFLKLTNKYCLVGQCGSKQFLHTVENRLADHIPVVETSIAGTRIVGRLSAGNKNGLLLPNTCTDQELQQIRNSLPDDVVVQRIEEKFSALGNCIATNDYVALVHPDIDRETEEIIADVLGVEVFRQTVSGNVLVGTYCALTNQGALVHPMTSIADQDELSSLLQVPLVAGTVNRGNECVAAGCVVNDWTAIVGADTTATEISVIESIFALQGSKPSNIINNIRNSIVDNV

“Dictyostelium discoideum eIF6 (eukaryotic initiation factor 6), endogenous (from UniProt Q551M2 1-244) (natural protein)”: the percent of native pre-60S subunits carrying eIF6 was 85%.
